In paper PMC11531844:

Biological target: Rluc-tagged smAKAP, a peptide derived from an RI-specific AKAP
Assay: Renilla luciferase (Rluc) protein-fragment complementation assay (PCA)
Details: bar labelled L50R:smAKAP; parent: est. 13; read off a plot

Q: With “Rluc-tagged RIβ WT (Renilla luciferase protein-fragment complementation hybrid protein) (from UniProt P31321) L50R” as the substance, how does the response read?
A: 1.5 RLU 10^4
